According to patent US20090208538A1:

What was measured:
[1] = biological target: HLA-A*1501 (human); experiment: iTopia affinity
[2] = biological target: HLA-A*1501 (human); experiment: iTopia net score
[3] = biological target: HLA-A*0201 (human); experiment: iTopia binding
[4] = biological target: HLA-A*0201 (human); experiment: iTopia affinity
[5] = biological target: HLA-A*0201 (human); experiment: iTopia net score

ED50 [1] [µM]	iScore [2]	binding vs positive control [3] [%]	ED50 [4] [µM]	iScore [5]	Binder
8.6	0.255	–	–	–	QQLGATGAY [cdr2 235-243 …]
110	0.065	–	–	–	RQKRVTMEE [cdr2 213-221 …]
170	0.075	–	–	–	MRQMLQSEH [cdr2 257-265 …]
–	–	> 30	2	0.584	MLQSEHPFV (modifications not checked) [cdr2 260-268 …]

Continued, binder first:

Binder	ED50 [1] [µM]	iScore [2]	binding vs positive control [3] [%]	ED50 [4] [µM]	iScore [5]
PSFACLKEL [cdr2 156-164 …]	45	0.072	–	–	–
YDLRQHFVY [cdr2 165-173 …]	45	0.098	–	–	–
LLRQMNEQH [cdr2 72-80 …]	68	0.106	–	–	–
LQQDLQLAA [cdr2 24-32 …]	42	0.09	–	–	–
